{"source": "patent US20240141027A1", "about": "(BIOARCTIC, published 2024)", "key": {"[1]": {"target": "T1, recombinant murine transferrin receptor 1 (mTfR1), extracellular domain fused to a His-tag (murine, UniProt Q62351 89-763)", "T1 construct": "Position of the His-tag (N or C) unknown; also called recombinant mTfR1; murine TfR1; not shown: His-tag", "T1 sequence (Q62351 89-763)": "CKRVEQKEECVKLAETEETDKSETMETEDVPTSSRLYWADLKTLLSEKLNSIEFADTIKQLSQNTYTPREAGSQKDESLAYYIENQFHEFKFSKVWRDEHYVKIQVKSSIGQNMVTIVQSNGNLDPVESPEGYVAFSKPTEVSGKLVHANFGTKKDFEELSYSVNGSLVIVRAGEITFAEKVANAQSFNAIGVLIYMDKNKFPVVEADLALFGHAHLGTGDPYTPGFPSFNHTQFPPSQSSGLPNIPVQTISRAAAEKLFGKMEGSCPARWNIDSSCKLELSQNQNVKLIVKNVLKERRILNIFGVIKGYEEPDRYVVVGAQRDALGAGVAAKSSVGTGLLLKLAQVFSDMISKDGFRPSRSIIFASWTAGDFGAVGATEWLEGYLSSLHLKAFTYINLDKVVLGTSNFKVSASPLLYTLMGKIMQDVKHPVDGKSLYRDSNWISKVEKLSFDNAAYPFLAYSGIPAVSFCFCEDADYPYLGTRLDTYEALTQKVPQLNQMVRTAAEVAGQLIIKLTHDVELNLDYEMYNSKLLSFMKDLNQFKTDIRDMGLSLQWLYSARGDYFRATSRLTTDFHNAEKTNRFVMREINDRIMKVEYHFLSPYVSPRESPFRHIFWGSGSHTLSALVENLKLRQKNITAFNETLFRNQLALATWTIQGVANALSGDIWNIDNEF", "experiment": "indirect ELISA, plates coated with recombinant mTfR1", "description": "Binding of selected expressed constructs to mTfR1 was assessed by indirect ELISA (FIG. 4). In brief, half area 96-well plates (Corning, #3690) were coated with 1 μg/ml recombinant mTfR1, produced as described in Example 4, in PBS overnight at 4° C. The coated plates were blocked using Pierce protein-free blocking solution (Thermo Fisher Scientific, #37572) for 1 h at room temperature with shaking and washed four times in PBS containing 0.1% TWEEN-20. Serial dilutions (1:3) of expressed constructs in incubation buffer (1% BSA, 0.1% TWEEN-20 in PBS) were incubated for 1 h at room temperature. Following the four wash steps, bound test constructs were detected by addition of anti-mouse-IgG F(ab′)2-HRP antibody (Jackson Immuno Research, #115-035-006) at 1:1250 dilution in incubation buffer (1 h, room temperature). Following four wash steps, K-Blue® Aqueous TMB substrate (Neogen, #331177) was added to the wells for 15 min at room temperature before the reaction was stopped with 1:1 dilution of 0.5 M H₂SO₄. The optical density at 450 nm was recorded (Spark, Tecan) and background signal was subtracted before analysis."}, "[2]": {"target": "T2, mTfR1 expressed on cell surfaces of Immortalized Mouse Cerebral Capillary Endothelial Cells (cEND) (mouse, UniProt Q62351 1-763)", "T2 construct": "whole, on cells; also called mTfR1 on cEND cells", "T2 sequence (Q62351 whole entry)": "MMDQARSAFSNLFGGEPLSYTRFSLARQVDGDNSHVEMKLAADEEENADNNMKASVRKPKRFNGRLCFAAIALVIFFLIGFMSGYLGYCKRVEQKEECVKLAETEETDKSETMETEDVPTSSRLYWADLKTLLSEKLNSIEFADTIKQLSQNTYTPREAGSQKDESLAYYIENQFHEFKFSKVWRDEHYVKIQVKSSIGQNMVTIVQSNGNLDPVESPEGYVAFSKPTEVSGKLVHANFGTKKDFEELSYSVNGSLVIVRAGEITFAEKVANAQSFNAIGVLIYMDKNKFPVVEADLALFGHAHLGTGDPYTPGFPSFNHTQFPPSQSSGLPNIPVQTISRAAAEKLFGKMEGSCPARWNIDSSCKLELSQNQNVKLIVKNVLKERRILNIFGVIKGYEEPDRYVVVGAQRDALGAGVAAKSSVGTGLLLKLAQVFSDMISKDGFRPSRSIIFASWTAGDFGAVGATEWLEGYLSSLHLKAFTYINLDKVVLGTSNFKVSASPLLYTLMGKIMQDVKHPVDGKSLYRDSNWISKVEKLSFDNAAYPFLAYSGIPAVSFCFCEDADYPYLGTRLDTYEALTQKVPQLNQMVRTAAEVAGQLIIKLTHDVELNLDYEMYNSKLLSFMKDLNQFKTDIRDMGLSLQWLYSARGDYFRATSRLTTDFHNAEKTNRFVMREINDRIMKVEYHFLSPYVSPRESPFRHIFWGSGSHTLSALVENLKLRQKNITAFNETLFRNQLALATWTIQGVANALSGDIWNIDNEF", "experiment": "flow cytometry on cEND cells, 100 nM, 4° C., anti-mouse IgG-PE", "description": "Binding and uptake mediated by TfR1 was measured on Immortalized Mouse Cerebral Capillary Endothelial Cells (cEND) (ABM, #T0290).\nThe pellet was resuspended in PBS and 200,000 cells per well were seeded in U-bottom 96-well Corning plates for flow cytometry staining. Cells were then washed with PBS and incubated with 100 nM of one of the mAb158-8D3 constructs mAb158-scLc-8D3-Ig.1, mAb158-scLc-8D3-Ig.2 and mAb158-scLc-8D3-Ig.3, control 8D3 IgG (light chain of SEQ ID NO:17, heavy chain of SEQ ID NO:19) or murine IgG control for 45 min at 4° C. After primary incubation, cells were washed twice with ice cold PBS, and mAb158-8D3 constructs were captured using a fluorescently labeled secondary anti-mouse IgG-PE antibody (BD Biosciences, 550589). After incubation, cells were washed twice with PBS and resuspended in 200 μl PBS. Cells were acquired in a BD FACSLyric flow cytometer system (BD Biosciences) and samples were analyzed using FCS Express software (De Novo Software)."}, "[3]": {"target": "T1, recombinant murine transferrin receptor …", "experiment": "SPR (Biacore 8K), mTfR1 amine-coupled on CM5 chip, single cycle kinetics", "description": "Monovalent binding interaction for mAb158-scLc-8D3-Ig.8 against murine TfR1 was measured using surface plasmon resonance (Biacore 8K, Cytiva). A Cm5 sensor chip (Cytiva, #BR100399) was immobilized with 3 μg/ml of mTfR1 using the amine coupling kit type 2 (Cytiva, #BR100633) according to the manufacturer's instruction. A 2-fold dilution series in HBS-EP+(Cytiva, #BR100669) starting at 50 nM of analyte was injected in duplicates over the immobilized ligand and the interaction was measured using the single cycle kinetics method with a contact time of 160 s at a flow rate of […] followed by a dissociation time of 1000 s."}}}
{"binder": "mAb158-scLc-8D3-Ig.2 (bispecific antibody, human IgG1, kappa, Format [LC-L1-scBM-L2-LC]) heavy: not shown DIVMTQAPLSLPVSLGDQASISCRSSQSIVHSNGNTYLEWYLQKPGQSPKLLIYKVSNRFSGVPDRFSGSGSGTDFTLKISRVEAEDLGIYYCFQGSHVPPTFGGGTKLEIKRADAAPTVSIFPPSSEQLTSGGASVVCFLNNFYPKDINVKWKIDGSERQNGVLNSWTDQDSKDSTYSMSSTLTLTKDEYERHNSYTCEATHKTSTSPIVKSFNRNECGGGGSGGGGSGGGGSGGGGSGGGGSEVQLVESGGGLVQPGNSLTLSCVASGFTFSNYGMHWIRQAPKKGLEWIAMIYYDSSKMNYADTVKGRFTISRDNSKNTLYLEMNSLRSEDTAMYYCAVPTSHYVVDVWGQGVSVTVSSGGGGSGGGGSGGGGSDIQMTQSPASLSASLEEIVTITCQASQDIGNWLAWYQQKPGKSPQLLIYGATSLADGVPSRFSGSRSGTQFSLKISRVQVEDIGIYYCLQAYNTPWTFGGGTKLELKRGGGGSGGGGSGGGGSGGGGSGGGGSDIVMTQAPLSLPVSLGDQASISCRSSQSIVHSNGNTYLEWYLQKPGQSPKLLIYKVSNRFSGVPDRFSGSGSGTDFTLKISRVEAEDLGIYYCFQGSHVPPTFGGGTKLEIKRADAAPTVSIFPPSSEQLTSGGASVVCFLNNFYPKDINVKWKIDGSERQNGVLNSWTDQDSKDSTYSMSSTLTLTKDEYERHNSYTCEATHKTSTSPIVKSFNRNEC", "values": [{"measurement": "binding result", "setting": "[1]", "value": "binds"}, {"measurement": "binding result", "setting": "[2]", "value": "binds"}]}
{"binder": "mAb158-scLc-8D3-Ig.3 (bispecific antibody, human IgG1, kappa, Format [LC-L1-scBM-L2-LC]) heavy: not shown DIVMTQAPLSLPVSLGDQASISCRSSQSIVHSNGNTYLEWYLQKPGQSPKLLIYKVSNRFSGVPDRFSGSGSGTDFTLKISRVEAEDLGIYYCFQGSHVPPTFGGGTKLEIKRADAAPTVSIFPPSSEQLTSGGASVVCFLNNFYPKDINVKWKIDGSERQNGVLNSWTDQDSKDSTYSMSSTLTLTKDEYERHNSYTCEATHKTSTSPIVKSFNRNECGGSSGSGSGSTGTSSSGTGTSAGTTGTSASTSGSGSEVQLVESGGGLVQPGNSLTLSCVASGFTFSNYGMHWIRQAPKKGLEWIAMIYYDSSKMNYADTVKGRFTISRDNSKNTLYLEMNSLRSEDTAMYYCAVPTSHYVVDVWGQGVSVTVSSGGGGSGGGGSGGGGSDIQMTQSPASLSASLEEIVTITCQASQDIGNWLAWYQQKPGKSPQLLIYGATSLADGVPSRFSGSRSGTQFSLKISRVQVEDIGIYYCLQAYNTPWTFGGGTKLELKRGGSSGSGSGSTGTSSSGTGTSAGTTGTSASTSGSGSGGSSGSGSGSTGTSSSGTGTSAGTTGTSASTSGSGSDIVMTQAPLSLPVSLGDQASISCRSSQSIVHSNGNTYLEWYLQKPGQSPKLLIYKVSNRFSGVPDRFSGSGSGTDFTLKISRVEAEDLGIYYCFQGSHVPPTFGGGTKLEIKRADAAPTVSIFPPSSEQLTSGGASVVCFLNNFYPKDINVKWKIDGSERQNGVLNSWTDQDSKDSTYSMSSTLTLTKDEYERHNSYTCEATHKTSTSPIVKSFNRNEC", "values": [{"measurement": "binding result", "setting": "[1]", "value": "binds"}, {"measurement": "binding result", "setting": "[2]", "value": "binds"}]}
{"binder": "8D3 Fab (Fab, V domains shown, Anti-mouse TfR1 control; also called monovalent 8D3 Fab control; monovalent 8D3 Fab) VH: EVQLVESGGGLVQPGNSLTLSCVASGFTFSNYGMHWIRQAPKKGLEWIAMIYYDSSKMNYADTVKGRFTISRDNSKNTLYLEMNSLRSEDTAMYYCAVPTSHYVVDVWGQGVSVTVSS VL: DIQMTQSPASLSASLEEIVTITCQASQDIGNWLAWYQQKPGKSPQLLIYGATSLADGVPSRFSGSRSGTQFSLKISRVQVEDIGIYYCLQAYNTPWTFGGGTKLELKR", "values": [{"measurement": "binding result", "setting": "[3]", "value": "binds"}]}
